According to patent US20030165887A1 (BURNHAM INSTITUTE, published 2003):

Legend:
Assay in all cases: co-immunoprecipitation, transfected HEK293T cells, SDS-PAGE/immunoblot
cIAP1 = cIAP1 (UniProt Q13490 1-618, limits assumed)
Procedure: (§1) The TUCAN polypeptides were expressed by transient transfection in HEK293T cells together with epitope-tagged pro-caspase-9 or other proteins. […] Cell lysates were prepared from transfected cells and immunoprecipitations were performed using anti-Flag or anti-Myc antibodies, followed by SDS-PAGE/immunoblot analysis.

cIAP2 = cIAP2 (Homo sapiens (Human), UniProt Q13489 1-604)
Procedure: as §1

Apaf1 = biological target: T1, Apaf1 (human, UniProt O14727 1-1248)
T1 sequence: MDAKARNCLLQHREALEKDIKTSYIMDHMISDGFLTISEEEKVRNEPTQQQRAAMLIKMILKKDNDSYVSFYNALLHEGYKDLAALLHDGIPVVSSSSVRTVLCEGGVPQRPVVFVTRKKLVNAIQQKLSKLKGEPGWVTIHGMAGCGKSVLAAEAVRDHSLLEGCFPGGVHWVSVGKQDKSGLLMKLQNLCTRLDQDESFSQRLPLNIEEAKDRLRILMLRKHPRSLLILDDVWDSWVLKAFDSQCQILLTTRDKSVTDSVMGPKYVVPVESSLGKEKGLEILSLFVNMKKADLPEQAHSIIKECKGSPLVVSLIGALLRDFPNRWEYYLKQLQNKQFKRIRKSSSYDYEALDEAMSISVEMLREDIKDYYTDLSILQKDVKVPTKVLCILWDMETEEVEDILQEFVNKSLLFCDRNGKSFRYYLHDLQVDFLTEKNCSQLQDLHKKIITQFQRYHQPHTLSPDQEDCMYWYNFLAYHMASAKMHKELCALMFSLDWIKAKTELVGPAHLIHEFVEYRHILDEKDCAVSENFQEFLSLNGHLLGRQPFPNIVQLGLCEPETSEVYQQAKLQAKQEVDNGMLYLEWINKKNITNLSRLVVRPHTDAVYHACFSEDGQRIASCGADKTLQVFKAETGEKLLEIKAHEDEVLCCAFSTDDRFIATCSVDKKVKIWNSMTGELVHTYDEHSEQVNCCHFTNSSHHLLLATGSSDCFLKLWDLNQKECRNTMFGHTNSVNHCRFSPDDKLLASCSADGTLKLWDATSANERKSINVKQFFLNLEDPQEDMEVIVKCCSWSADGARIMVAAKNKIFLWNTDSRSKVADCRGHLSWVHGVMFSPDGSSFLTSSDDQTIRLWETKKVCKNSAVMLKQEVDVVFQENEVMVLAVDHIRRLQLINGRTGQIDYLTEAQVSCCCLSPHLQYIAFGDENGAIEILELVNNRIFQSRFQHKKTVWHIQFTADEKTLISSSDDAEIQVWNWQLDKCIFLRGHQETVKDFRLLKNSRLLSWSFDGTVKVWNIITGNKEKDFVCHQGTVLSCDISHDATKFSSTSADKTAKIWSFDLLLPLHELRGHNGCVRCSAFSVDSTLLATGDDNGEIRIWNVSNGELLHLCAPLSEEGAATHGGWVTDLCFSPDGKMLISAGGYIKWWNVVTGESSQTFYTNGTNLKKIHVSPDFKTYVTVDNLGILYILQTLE
Procedure: as §1

pro-Caspase-2 = biological target: T2, pro-Caspase-2 (UniProt P42575 1-452, limits assumed)
T2 sequence (looked up): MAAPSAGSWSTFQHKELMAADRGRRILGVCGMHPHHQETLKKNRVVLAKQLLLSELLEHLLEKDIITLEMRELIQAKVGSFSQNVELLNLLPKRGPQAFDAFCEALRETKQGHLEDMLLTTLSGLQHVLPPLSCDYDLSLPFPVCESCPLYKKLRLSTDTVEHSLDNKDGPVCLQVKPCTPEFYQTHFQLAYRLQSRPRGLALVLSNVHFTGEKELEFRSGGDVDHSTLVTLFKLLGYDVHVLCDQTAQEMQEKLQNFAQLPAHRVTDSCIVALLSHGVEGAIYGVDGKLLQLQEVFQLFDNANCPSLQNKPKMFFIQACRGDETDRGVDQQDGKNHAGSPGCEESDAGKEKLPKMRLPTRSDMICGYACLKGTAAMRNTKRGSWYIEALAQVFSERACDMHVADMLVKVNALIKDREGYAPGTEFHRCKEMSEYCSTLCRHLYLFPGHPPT
Procedure: as §1

Measured: binding result

Sequence of cIAP1 (Q13490 whole entry): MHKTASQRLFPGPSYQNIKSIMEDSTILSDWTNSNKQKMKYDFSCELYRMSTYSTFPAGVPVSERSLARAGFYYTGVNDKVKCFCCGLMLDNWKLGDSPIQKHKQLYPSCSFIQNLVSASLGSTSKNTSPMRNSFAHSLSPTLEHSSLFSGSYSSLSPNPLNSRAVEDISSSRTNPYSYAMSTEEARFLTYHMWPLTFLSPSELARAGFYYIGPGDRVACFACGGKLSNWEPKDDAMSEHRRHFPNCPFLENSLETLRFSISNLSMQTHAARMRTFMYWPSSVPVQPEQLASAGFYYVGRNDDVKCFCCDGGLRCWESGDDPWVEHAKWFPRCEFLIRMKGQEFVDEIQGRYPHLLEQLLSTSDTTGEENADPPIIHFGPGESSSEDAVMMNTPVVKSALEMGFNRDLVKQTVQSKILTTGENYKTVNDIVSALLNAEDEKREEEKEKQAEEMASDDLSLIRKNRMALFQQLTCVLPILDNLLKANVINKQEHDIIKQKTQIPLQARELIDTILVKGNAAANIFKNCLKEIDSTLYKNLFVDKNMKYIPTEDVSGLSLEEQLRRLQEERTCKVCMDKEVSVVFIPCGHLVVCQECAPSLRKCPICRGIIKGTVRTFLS
Sequence of cIAP2 (Q13489 whole entry): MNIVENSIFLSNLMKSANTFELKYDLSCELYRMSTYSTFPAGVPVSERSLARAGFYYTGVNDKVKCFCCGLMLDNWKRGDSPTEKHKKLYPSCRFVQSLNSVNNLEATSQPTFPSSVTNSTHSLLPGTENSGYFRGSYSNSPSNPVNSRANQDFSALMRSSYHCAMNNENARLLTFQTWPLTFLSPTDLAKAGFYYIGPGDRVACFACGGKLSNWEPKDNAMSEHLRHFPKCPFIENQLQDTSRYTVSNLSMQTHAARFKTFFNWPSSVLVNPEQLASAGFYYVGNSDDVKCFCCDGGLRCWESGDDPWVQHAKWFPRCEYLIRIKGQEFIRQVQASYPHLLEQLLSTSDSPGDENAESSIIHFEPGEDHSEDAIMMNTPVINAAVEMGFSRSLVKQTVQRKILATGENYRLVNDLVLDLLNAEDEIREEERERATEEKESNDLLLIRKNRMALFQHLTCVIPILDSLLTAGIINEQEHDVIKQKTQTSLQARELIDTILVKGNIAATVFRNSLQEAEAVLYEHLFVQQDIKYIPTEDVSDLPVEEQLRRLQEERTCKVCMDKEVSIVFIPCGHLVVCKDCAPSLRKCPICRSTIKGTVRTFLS

B1: TUCAN (Tumor Up-regulated CARD-containing Antagonist of Caspase Nine), full-length (other)
chain: MMRQRQSHYCSVLFLSVNYLGGTFPGDICSEENQIVSSYASKVCFEIEEDYKNRQFLGPEGNVDVELIDKSTNRYSVWFPTAGWYLWSATGLGFLVRDEVTVTIAFGSWSQHLALDLQHHEQWLVGGPLFDVTAEPEEAVAEIHLPHFISLQGEVDVSWFLVAHFKNEGMVLEHPARVEPFYAVLESPSFSLMGILLRIASGTRLSIPITSNTLIYYHPHPEDIKFHLYLVPSDALLTKAIDDEEDRFHGVRLQTSPPMEPLNFGSSYIVSNSANLKVMPKELKLSYRSPGEIQHFSKFYAGQMKEPIQLEITEKRHGTLVWDTEVKPVDLQLVAASAPPPFSGAAFVKENHRQLQARMGDLKGVLDDLQDNEVLTENEKELVEQEKTRQSKNEALLSMVEKKGDLALDVLFRSISERDPYLVSYLRQQNL
notes: Full-length TUCAN expressed by transient transfection in HEK293T cells; also called full-length TUCAN; CARD-X
no binding: cIAP1 | cIAP2 | Apaf1 | pro-Caspase-2
